Reference: patent US20250188136A1, “AV3 MUTANT POLYPEPTIDES FOR PEST CONTROL” (Vestaron Corporation, priority 2021, published 2025)
Entries after “also recorded” stand apart in the source; their conditions may differ. Ends that are not written are not given here.

How the values were obtained:
houseflies = assay: Housefly injection assay (knock-down); type: in vivo, Musca domestica
Procedure: An exemplary housefly injection bioassay is as follows: conditioned media is serially diluted to generate full dose-response curves from the housefly injection bioassay. Before injection, adult houseflies (Musca domestica) are immobilized with CO2, and 12-18 mg houseflies are selected for injection. A microapplicator, loaded with a 1 cc syringe and 30-gauge needle, is used to inject 0.5 μL per fly, doses of serially diluted conditioned media samples into houseflies through the body wall of the dorsal thorax. The injected houseflies are placed into closed containers with moist filter paper and breathing holes on the lids, and they are examined by knock-down ratio or by mortality scoring at 24 hours post-injection. Normalized yields are calculated. Peptide yield means the peptide concentration in the conditioned media in units of mg/L. However, peptide yields are not always sufficient to accurately compare the strain production rate. […] A culture with a high cell density may produce a higher concentration of the peptide in the media, even though the peptide production rate of the strain is lower than another strain which has a higher production rate. Accordingly, the term “normalized yield” is created by dividing the peptide yield with the cell density in the corresponding culture and this allows a better comparison of the peptide production rate between strains. The cell density is represented by the light absorbance at 600 nm with a unit of “A” (Absorbance unit).
A housefly injection assay was performed to determine the activity of the new mutants. Adult houseflies were immobilized with CO2 for 10 minutes, and then transferred to a CO2 pan to keep immobilized. Flies with weight between 12-20 mg were picked for injection. The new mutants and Av3b control were diluted in water to proper doses for injection. Next, a 0.5 μL peptide solution was injected into each housefly at the dorsal thorax using a hand-microapplicator with 1 cc all-glass syringe with 30 gauge straight needle. The injected flies were then transferred to a 2 oz. transparent portion container with a wet #4 filter paper. Fly knock-down was assessed at 5-hours post-injection. The activity of a given new mutant was then normalized to the activity of the Av3b production strain (control), using the fly knock-down score at 5 hours.

[1] = Thermo-stability at 54° C. in pH 4.0 solution; type: physicochemical
Procedure: A thermo-stability study was performed for Av3b, Av3bM24, Av3bM165, Av3bM103, and Av3bM170 in a pH 4.0 solution at 54° C. for 0, 3, 7, 10, 12, and 14 days, with a caffeine internal control to cancel variation from evaporation. Samples of 1 mL were prepared in 1.5 mL microtube with sodium acetate buffer (NaOAc) at pH 4.0, containing 0.1 μg/μL of peptide, and 0.025 μg/μL of caffeine. The samples were incubated at 54° C. in a dry mixer. At 0, 3, 7, 10, 12, and 14 days, 20 μL of each sample was analyzed via analytic rpHPLC system to evaluate peptide loss. Each sample contained a fixed amount caffeine, which was used to compensate the peptide HPLC UV absorbance peak change due to volume change by evaporation. FIG. 68.

[2] = Stability of Av3b mutants in insect gut extract; type: in vitro ADME, Helicoverpa zea; details: H. zea gut extract digestion, room temperature
Procedure: To test the stability of the Av3b mutants in the gut enzymes of a lepidopteran pest, the gut extract were prepared from Helicoverpa zea (Corn Earworm or “CEW”). Corn Earworm insects were obtained commercially from Benzon Research (Carlisle, PA) as eggs. Hatched larvae were raised on artificial diet until ⅘^th instar (20 mm long) before guts were isolated. Before gut extraction, larvae were anesthetized using CO2. The larva was then pinned on the dissection plate at both the head and the tail. Using dissection scissors, the cuticle was nicked. The dissection scissors were then inserted into the nick and the […] along the insect. The cuticle was then carefully pulled back and pinned open to reveal the digestive track. Using DI water, the insect was thoroughly rinsed to remove hemolymph.
After the insect guts were extracted from the larva, they were spun at 15000 rpm for 5 minutes. The resulting supernatant is the “insect gut extract” that was used to determine peptide stability. Av3b mutant peptide was mixed with the gut extract to […] of 2 μg/μL, and incubated at room temperature. At time points between 0-100 hours, 6 μL of a given sample was mixed with 93 μL dH2O followed by the addition of 1 μL of a 2% trifluoracetic acid solution to stop the reaction. The sample was then analyzed by rpHPLC to determine the peptide loss during the gut extract treatment.

## KSCCPCYWGGCPWGQNCYPEGCDGPK (ends and bridges not checked; cysteine pairing not given here) [Av3bM24]
houseflies; knock-down at 5 hours post-injection
  housefly knock-down / insecticidal activity relative to Av3b: without a concomitant reduction in housefly knock-down activity; also recorded: insecticidal activity
houseflies; knock-down at 5 hours post-injection normalized to Av3b, Yes = insecticidal activity maintained
  Activity: Yes
[1]; pH 4.0, 54° C., HPLC peak area, + mass increase, − mass loss
  peptide change on day 14: −29.5%
[1]; pH 4.0 solution, up to 14 days
  thermo-stability at 54° C.: not thermo-stable
[2]
  resistance to degradation in gut extract: most resistant to degradation
